Data: patent US20220235109A1 (CUGENE, published 2022)

T1: IL-2Rβγ on human CD8+ T cells, NK cells and CD4+ T cells (human, UniProt P14784 27-551; P31785 23-369)
T1 sequence (looked up) 1: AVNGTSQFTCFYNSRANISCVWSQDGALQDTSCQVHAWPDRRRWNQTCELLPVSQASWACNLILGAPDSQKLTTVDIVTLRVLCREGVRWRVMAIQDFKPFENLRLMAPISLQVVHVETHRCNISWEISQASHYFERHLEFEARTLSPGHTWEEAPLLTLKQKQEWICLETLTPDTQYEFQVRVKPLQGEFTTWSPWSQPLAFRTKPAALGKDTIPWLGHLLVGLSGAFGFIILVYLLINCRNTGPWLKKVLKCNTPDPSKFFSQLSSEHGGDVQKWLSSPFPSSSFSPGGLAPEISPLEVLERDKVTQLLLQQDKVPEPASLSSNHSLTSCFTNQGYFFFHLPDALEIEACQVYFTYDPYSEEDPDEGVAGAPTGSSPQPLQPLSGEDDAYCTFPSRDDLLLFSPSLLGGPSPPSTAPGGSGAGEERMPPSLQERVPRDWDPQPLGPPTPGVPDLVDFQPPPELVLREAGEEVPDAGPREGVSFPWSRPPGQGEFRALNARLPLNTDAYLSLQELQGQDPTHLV
T1 sequence (looked up) 2: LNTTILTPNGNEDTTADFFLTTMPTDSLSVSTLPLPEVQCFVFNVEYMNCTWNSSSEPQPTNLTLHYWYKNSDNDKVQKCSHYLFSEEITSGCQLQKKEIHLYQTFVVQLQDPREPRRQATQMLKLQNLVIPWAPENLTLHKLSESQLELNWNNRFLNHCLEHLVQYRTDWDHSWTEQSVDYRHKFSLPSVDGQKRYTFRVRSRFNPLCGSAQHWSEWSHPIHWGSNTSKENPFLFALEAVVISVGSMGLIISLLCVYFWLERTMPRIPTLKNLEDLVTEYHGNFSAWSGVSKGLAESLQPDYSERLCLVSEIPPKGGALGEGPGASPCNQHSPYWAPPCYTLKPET

T2: recombinant IL-2Rβγ heterodimer (human)
T2 construct: IL-2Rβ ECD at the N-terminus of Fc hole chain, γc ECD at the N-terminus of Fc knob chain; also called recombinant IL-2Rβγ protein; dimeric IL-2Rβγ receptor
T2 chain 1: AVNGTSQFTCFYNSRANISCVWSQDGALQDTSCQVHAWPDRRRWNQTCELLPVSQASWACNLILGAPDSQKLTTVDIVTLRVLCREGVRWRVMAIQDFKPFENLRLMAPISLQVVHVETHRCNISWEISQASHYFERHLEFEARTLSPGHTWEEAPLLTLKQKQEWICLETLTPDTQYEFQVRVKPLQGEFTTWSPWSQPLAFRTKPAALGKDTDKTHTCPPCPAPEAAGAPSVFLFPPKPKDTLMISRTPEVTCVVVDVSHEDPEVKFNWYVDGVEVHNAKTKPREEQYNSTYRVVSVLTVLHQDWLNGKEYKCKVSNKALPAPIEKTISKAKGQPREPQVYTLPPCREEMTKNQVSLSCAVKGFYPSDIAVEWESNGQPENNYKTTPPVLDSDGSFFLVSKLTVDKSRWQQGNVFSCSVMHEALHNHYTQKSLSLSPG
T2 chain 2: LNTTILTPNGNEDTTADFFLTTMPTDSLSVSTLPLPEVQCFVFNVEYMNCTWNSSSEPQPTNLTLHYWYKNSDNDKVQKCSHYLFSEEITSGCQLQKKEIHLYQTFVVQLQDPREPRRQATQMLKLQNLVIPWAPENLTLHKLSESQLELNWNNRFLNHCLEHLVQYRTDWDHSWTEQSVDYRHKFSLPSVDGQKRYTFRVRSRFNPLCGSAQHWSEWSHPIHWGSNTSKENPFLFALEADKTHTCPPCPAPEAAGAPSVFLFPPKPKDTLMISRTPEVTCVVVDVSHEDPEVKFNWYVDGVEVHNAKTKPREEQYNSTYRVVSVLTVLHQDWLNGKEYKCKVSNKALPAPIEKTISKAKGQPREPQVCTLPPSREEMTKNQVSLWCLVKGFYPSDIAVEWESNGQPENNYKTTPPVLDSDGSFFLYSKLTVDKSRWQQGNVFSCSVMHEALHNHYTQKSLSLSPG


Experiments:
huPD-1-His = huPD-1-His (human, UniProt Q15116 25-167, limits assumed); experiment: ELISA, huPD-1-His coated
Protocol: A panel of IL-2 muteins was expressed as C-terminal fusions to the Fc homodimer of Fc heterodimer and screened for binding to IL-2Rα in enzyme-linked immunosorbent assay (ELISA). Briefly, IL-2Rα-ECD (SEQ ID NO: 5) was coated onto the wells of Nunc Maxisorp 96-well microplates at 0.1 μg/well. After overnight incubation at 4° C. and blocking with superblock (Thermo Fisher), 3-fold serial dilutions of IL-2 Fc fusion proteins starting at 100 nM were added to each well at 100 μI/well. Following one-hour incubation at room temperature, 100 μl/well of goat anti-human IgG Fc-HRP (1:5000 diluted in diluent) were added to each well and incubated at room temperature for 1 hour. Wells were thoroughly aspirated and washed three times with PBS/0.05% Tween-20 following each step. Finally, 100 μl TMB substrate was added to each well; the plate was developed at room temperature in the dark for 10 minutes, and 100 μl/well of stop solution (2N Sulfuric acid, Ricca Chemical) was added. Absorbance was determined at 450 nm and curves were fit using Prism software (Graph Pad).
(§1) For direct binding, the same ELISA protocol in Example 4 was followed using huPD-1-His as the coating antigen. […] Briefly, plate was coated with 0.2 μg/well of human PD1-Fc protein at 4° C. for overnight. […] Streptavidin-HRP was added as the secondary antibody.

[1] = target: PD-1 on PD-1 positive T cells (Tregs) of human PBMC (human, UniProt Q15116 25-288); experiment: cell-based or functional assay
human PD1-Fc protein = human PD1-Fc protein (human, UniProt Q15116 25-167, limits assumed); experiment: competition ELISA, human PD1-Fc coated, biotinylated Human PDL1-Fc at 0.5 µg/mL as the ligand displaced
Protocol: as §1

[2] = target: T1, IL-2Rβγ on human CD8+ T cells, NK cells …; experiment: cell-based or functional assay
[3] = target: T2, recombinant IL-2Rβγ heterodimer; experiment: ELISA, IL-2Rβγ-Fc heterodimer coated
Protocol: After overnight incubation at 4° C. and blocking with 1% BSA, 3-fold serial dilutions of IL-2 Fc fusion proteins starting at 10 nM were added to each well at 100 μl/well. […] Subsequently, 100 μl/well of streptavidin-HRP (1:5000 diluted in diluent) were added to each well and incubated at room temperature for 40 min. Wells were thoroughly aspirated and washed three times with PBS/0.05% Tween-20 following each step. Finally, 100 μl TMB substrate was added to each well; the plate was developed at room temperature in the dark for 10 minutes, and 100 μl/well of stop solution (2N Sulfuric acid, Ricca Chemical) was added. Absorbance was determined at 450 nm and curves were fit using Prism software (GraphPad).

[4] = target: T3, PD1 expressed on cell surface (UniProt Q15116 25-288, limits assumed); experiment: FACS on PD-1-expressing cells
T3 construct: whole, on cells; also called PD-1-expressing cells; cell surface expressed PD-1
T3 sequence (Q15116 25-288 limits assumed): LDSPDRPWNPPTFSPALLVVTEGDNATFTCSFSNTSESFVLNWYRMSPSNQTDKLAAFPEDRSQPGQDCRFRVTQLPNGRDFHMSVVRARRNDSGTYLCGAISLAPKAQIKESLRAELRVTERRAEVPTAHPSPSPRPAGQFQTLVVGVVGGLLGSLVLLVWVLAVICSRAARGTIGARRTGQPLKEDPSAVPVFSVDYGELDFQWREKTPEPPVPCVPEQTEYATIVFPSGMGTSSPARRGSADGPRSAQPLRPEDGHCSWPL

Sequence of human PD1-Fc protein (Q15116 25-167 limits assumed): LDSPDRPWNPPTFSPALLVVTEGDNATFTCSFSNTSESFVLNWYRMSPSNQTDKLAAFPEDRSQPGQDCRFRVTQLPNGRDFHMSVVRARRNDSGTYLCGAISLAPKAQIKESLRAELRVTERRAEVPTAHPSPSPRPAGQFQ
Sequence of huPD-1-His (Q15116 25-167 limits assumed): as above
Sequence of PD-1 on PD-1 positive T cells (Tregs) of human PBMC (Q15116 25-288): as the sequence (Q15116 25-288 limits assumed) above

Row | Binder | EC50 (huPD-1-His) | pSTAT5 in PD-1 positive T cells (human PBMC), potency against P-0782 [1] | IC50 (human PD1-Fc protein) | fold decrease in Ki67 expression on human CD8+ T cells (potency against P-0704) [2] | fold decrease in proliferation (Ki67) of human CD8+ T cells, NK cells and CD4+ T cells (potency against P-0704) [2] | binding result [3] | binding result [4]
1 | P-0731 (Fc fusion, knob chain carries the IL-2 variant; hole-Fc; monovalent; also called IL-2 L19H/P65R/S125I monovalent Fc fusion) chain 1: DKTHTCPPCPAPEAAGAPSVFLFPPKPKDTLMISRTPEVTCVVVDVSHEDPEVKFNWYVDGVEVHNAKTKPREEQYNSTYRVVSVLTVLHQDWLNGKEYKCKVSNKALPAPIEKTISKAKGQPREPQVCTLPPSREEMTKNQVSLWCLVKGFYPSDIAVEWESNGQPENNYKTTPPVLDSDGSFFLYSKLTVDKSRWQQGNVFSCSVMHEALHNHYTQKSLSLSPGGGGSGGGSAPTSSSTKKTQLQLEHLLHDLQMILNGINNYKNPKLTRMLTFKFYMPKKATELKHLQCLEEELKRLEEVLNLAQSKNFHLRPRDLISNINVIVLELKGSETTFMCEYADETATIVEFLNRWITFIQSIISTLT chain 2: DKTHTCPPCPAPEAAGAPSVFLFPPKPKDTLMISRTPEVTCVVVDVSHEDPEVKFNWYVDGVEVHNAKTKPREEQYNSTYRVVSVLTVLHQDWLNGKEYKCKVSNKALPAPIEKTISKAKGQPREPQVYTLPPCREEMTKNQVSLSCAVKGFYPSDIAVEWESNGQPENNYKTTPPVLDSDGSFFLVSKLTVDKSRWQQGNVFSCSVMHEALHNHYTQKSLSLSPG |  |  |  | ~30 fold | 30 fold | binds | 
2 | P-0795 (antibody, human IgG1, kappa, V domains shown, full heavy and light chains; also called human PD-1 antagonist antibody; hPD1 antibody) VH: EVQLVESGGGLVKPGGSLRLSCAASGFTFSSYDMSWVRQAPGKGLEWVATISGGGSYTYYPDSVKGRFTISRDNAKNSLYLQMNSLRAEDTAVYYCASPDSSGVAYWGQGTLVTVSS VL: DIVMTQSPLSLPVTPGEPASITCKASQDVETVVAWYLQKPGQSPRLLIYWASTRHTGVPDRFSGSGSGTDFTLKISRVEAEDVGVYYCQQYSRYPWTFGQGTKLEIKR | 0.6 nM |  | 2.1 nM |  |  |  | 

The remaining lines, values ahead:

Row | EC50 (huPD-1-His) | pSTAT5 in PD-1 positive T cells (human PBMC), potency against P-0782 [1] | IC50 (human PD1-Fc protein) | fold decrease in Ki67 expression on human CD8+ T cells (potency against P-0704) [2] | fold decrease in proliferation (Ki67) of human CD8+ T cells, NK cells and CD4+ T cells (potency against P-0704) [2] | binding result [3] | binding result [4] | Binder
3 | 0.6 nM | > 15 fold | 2.1 nM |  |  |  |  | P-0803 (antibody, human IgG1, kappa, also called IL-2 P65R/S125I human PD-1 antibody fusion, (G3S)2 linker) heavy 1: not shown heavy 2: EVQLVESGGGLVKPGGSLRLSCAASGFTFSSYDMSWVRQAPGKGLEWVATISGGGSYTYYPDSVKGRFTISRDNAKNSLYLQMNSLRAEDTAVYYCASPDSSGVAYWGQGTLVTVSSASTKGPSVFPLAPSSKSTSGGTAALGCLVKDYFPEPVTVSWNSGALTSGVHTFPAVLQSSGLYSLSSVVTVPSSSLGTQTYICNVNHKPSNTKVDKKVEPKSCDKTHTCPPCPAPEAAGAPSVFLFPPKPKDTLMISRTPEVTCVVVDVSHEDPEVKFNWYVDGVEVHNAKTKPREEQYNSTYRVVSVLTVLHQDWLNGKEYKCKVSNKALPAPIEKTISKAKGQPREPQVYTLPPCREEMTKNQVSLSCAVKGFYPSDIAVEWESNGQPENNYKTTPPVLDSDGSFFLVSKLTVDKSRWQQGNVFSCSVMHEALHNHYTQKSLSLSPG light: DIVMTQSPLSLPVTPGEPASITCKASQDVETVVAWYLQKPGQSPRLLIYWASTRHTGVPDRFSGSGSGTDFTLKISRVEAEDVGVYYCQQYSRYPWTFGQGTKLEIKRTVAAPSVFIFPPSDEQLKSGTASVVCLLNNFYPREAKVQWKVDNALQSGNSQESVTEQDSKDSTYSLSSTLTLSKADYEKHKVYACEVTHQGLSSPVTKSFNRGEC
4 |  |  |  |  |  | binds | no binding | P-0759 (Fc fusion, knob chain carries the IL-2 variant; hole-Fc; monovalent; also called IL-2 L19Q/P65R/S125I monovalent Fc fusion) chain 1: DKTHTCPPCPAPEAAGAPSVFLFPPKPKDTLMISRTPEVTCVVVDVSHEDPEVKFNWYVDGVEVHNAKTKPREEQYNSTYRVVSVLTVLHQDWLNGKEYKCKVSNKALPAPIEKTISKAKGQPREPQVCTLPPSREEMTKNQVSLWCLVKGFYPSDIAVEWESNGQPENNYKTTPPVLDSDGSFFLYSKLTVDKSRWQQGNVFSCSVMHEALHNHYTQKSLSLSPGGGGSGGGSAPTSSSTKKTQLQLEHLLQDLQMILNGINNYKNPKLTRMLTFKFYMPKKATELKHLQCLEEELKRLEEVLNLAQSKNFHLRPRDLISNINVIVLELKGSETTFMCEYADETATIVEFLNRWITFIQSIISTLT chain 2: DKTHTCPPCPAPEAAGAPSVFLFPPKPKDTLMISRTPEVTCVVVDVSHEDPEVKFNWYVDGVEVHNAKTKPREEQYNSTYRVVSVLTVLHQDWLNGKEYKCKVSNKALPAPIEKTISKAKGQPREPQVYTLPPCREEMTKNQVSLSCAVKGFYPSDIAVEWESNGQPENNYKTTPPVLDSDGSFFLVSKLTVDKSRWQQGNVFSCSVMHEALHNHYTQKSLSLSPG
